B1: Nogo B-receptor (NgBR) pseudo cis-prenyltransferase domain, residues 73-293, lacking residues 167-175 (domain or fragment)
chain: RGGSCLAAAHHRMRWRADGRSLEKLPVHMGLVITEVEQEPSFSDIASLVVWCMAVGISYISVYDHQGIFKRNNSRLMDEILKQQQELLGLDCSKDKDDQVLNCHLAVKVLSPEDGKADIVRAAQDFCQLVAQKQKRPTDLDVDTLASLLSSNGCPDPDLVLKFGPVDSTLGFLPWHIRLTEIVSLPSHLNISYEDFFSALRQYAACEQRLGK
B2: dehydrodolichyl diphosphate synthase (DHDDS), residues 1-333 (enzyme)
chain: MSWIKEGELSLWERFCANIIKAGPMPKHIAFIMDGNRRYAKKCQVERQEGHSQGFNKLAETLRWCLNLGILEVTVYAFSIENFKRSKSEVDGLMDLARQKFSRLMEEKEKLQKHGVCIRVLGDLHLLPLDLQELIAQAVQATKNYNKCFLNVCFAYTSRHEISNAVREMAWGVEQGLLDPSDISESLLDKCLYTNRSPHPDILIRTSGEVRLSDFLLWQTSHSCLVFQPVLWPEYTFWNLFEAILQFQMNHSVLQKARDMYAEERKRQQLERDQATVTEQLLREGLQASGDAQLRRTRLHKLSARREERVQGFLQALELKRADWLARLGTASA

Key:
[1] = biological target: B2; assay: crystal structure
crystal structure = biological target: the molecule itself; assay: crystal structure

Row | binding result [1] | Binder | binding result (crystal structure)
1 | binds | B1 | –
2 | – | B2 | binds

— doi:10.1101/2021.10.21.465316 (bioRxiv, 2021)
